Experiments:
[1] = tested on: Human ovarian cancer cells SKOV3 tumor; assay: Ovarian cancer mouse model in vivo, intratumoral injection; design: species or system nude mice; settings: 5 mg/kg intratumoral injection every 2 days, 7 times
Protocol: Human ovarian cancer cells SKOV3 were cultured. Cells were digested by the trypsin before being used for tumor bearing. Cells were washed twice with PBS, followed by resuspending with PBS to a concentration of 1×10^8/mL. The cell suspension was subcutaneously injected into the axilla of nude mice, with an inoculation dose of 0.2 mL per nude mouse. After inoculation, nude mice were randomly assigned into two groups, which were PBS group and GhJAZ1 protein (5 mg/kg) treated group, respectively, with 8 mice in each group. After tumor inoculation, administration began when the tumor volume reached to about 50-100 mm^3. Administration by intratumoral injection was conducted every 2 days for a cycle of 14 days, in total of 7 times. Throughout the entire experiment, the body weight of nude mice was monitored while administration, and tumor size was measured using a vernier caliper according on the formula V=½×length×width×width, to calculate the tumor volume, and plot tumor growth curve. 14 days later, the tumor was removed, took images and weighted.

[2] = target: T1, NMYC (Homo sapiens, UniProt P04198); assay: Yeast two hybrid with NMYC; format: binding
T1 construct: with the full length of c-Myc and NMYC, respectively; expressed in transfected cells; host or cells: yeast Y2HGold
T1 sequence (P04198 1-464): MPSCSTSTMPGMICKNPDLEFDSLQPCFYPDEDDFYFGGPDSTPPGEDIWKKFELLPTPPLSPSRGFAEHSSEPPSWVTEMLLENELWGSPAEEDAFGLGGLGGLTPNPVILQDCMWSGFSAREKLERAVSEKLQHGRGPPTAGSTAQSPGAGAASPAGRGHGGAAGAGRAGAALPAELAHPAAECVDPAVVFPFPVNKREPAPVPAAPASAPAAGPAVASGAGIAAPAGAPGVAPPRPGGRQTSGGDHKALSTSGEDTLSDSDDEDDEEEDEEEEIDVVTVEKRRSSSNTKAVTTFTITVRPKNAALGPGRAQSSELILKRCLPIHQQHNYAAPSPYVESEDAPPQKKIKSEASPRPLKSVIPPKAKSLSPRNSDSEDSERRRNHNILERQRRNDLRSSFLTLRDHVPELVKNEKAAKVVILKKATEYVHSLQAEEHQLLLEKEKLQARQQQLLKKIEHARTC
Source text: […]

B1: GhJAZ1: cotton JAZ1 protein, gene number Gh_A05G0260, sequence SEQ ID No. 4; prokaryotically expressed with His tag, about 30 KD (protein)
chain: MSSCSESTAMKPARSPEKPSFAQTCNLLSQYLKEKGSFGDLSLGMTCNVEANGTPVVPPPTMNLFPLNDKSDDVCGRNGGNPKNLTSMDLFPQQAGLASKDDSPNKLEPQTAPMTIFYGGQVIVFNDFPANKAKEIMLLASNSSSQSNNSFNPIPFTSSIARSPIESSIGVPPTSKPVHPAQRAVPGDLPIARRASLHRFLEKRKDRITAKAPYQINNSAAAPSLSGDNKSWLGLAAQSP
modifications: His tag
notes: prokaryotically expressed with His tag, about 30 KD
- volume of tumors vs control group ([1]; SKOV3 in nude mice): highly significantly lower
- weight of tumors vs control group ([1]; tumors removed after 14 days): highly significantly lower
- interaction with NMYC [2]: interacted

Reference: patent publication US20240279288A1, “APPLICATION OF PLANT JAZ PROTEINS AND DERIVED POLYPEPTIDES IN PREVENTION AND TREATMENT OF HUMAN AND ANIMAL TUMORS” (ANYANG INSTITUTE OF SINO-COTTON INDUSTRY INNOVATION, priority 2021, published 2024)
